Holding throughout (conditions): label: 5' biotin
Series [1] addresses T1, Human serum albumin (HSA) (Homo sapiens, UniProt P02768 P02768:25-609). Kind of series: EMSA; 25 C 1 h. The protocol:
(§1) After that the reaction was incubated at 4° C. for 1 minutes before use. Step 2: 1 µL HSA was mixed with 9 µL of aptamer against HSA and 1 µL of 0.4 µg/µL GHSA was mixed with 9 µL of aptamer against GHSA. Step 3: The reaction from step 2 was incubated at 25° C. for 1 hour and analyzed on 8% polyacrylamide gel at 100 V for 30 minutes. Step 4: Aptamers on the polyacrylamide gel from step 3 were transferred to nylon membrane (Amersham Hybond-N+; GE Healthcare). Classical DNA/RNA transferring method was used. The transferring buffer was SSC (150 mM […] and 15 mM Sodium citrate, pH 7.0) and incubation time was 12 h. Step 5: Aptamer analysis using Phototope®-Star Detection Kit (New England Biolabs) Nylon membrane was removed from the transferring set up and put in the clear plastic container containing solution A (5% Sodium Dodecyl Sulfate (SDS), 125 mM NaCl, 25 mM Sodium Phosphate, pH 7.5). The system was incubated at room temperature for 5 minutes with gentle shaking. The solution was discarded and 10 µL of streptavidin in 20 mL of solution A was added in the reaction container and incubated at room temperature for 5 minutes with gentle shaking. The solution was discarded. Then the membrane was washed 3 times by using solution B (1:10 of solution A in steriled water) with gentle shaking for 5 min. […]
For orientation: A gel shift assay detects complexes by their altered migration in electrophoresis.

Series [2] has as its target T1, Human serum albumin (HSA). In words: ELONA; indirect ELISA: + at 200, 2, 0.2 nM, - at 20 nM; PBST, room temperature. The source says:
The binding assay of selected aptamers against HSA and aptamers against GHSA is deteimined by using Indirect Enzyme-Linked Immunosorbent Assay (Indirect ELISA) and Direct Enzyme-Linked Immunosorbent Assay (Direct ELISA), as described below. 3.1. Indirect Enzyme-Linked Immunosorbent Assay (Indirect ELISA) The principle of this experiment is based on two antibodies, which are antibodies against 5' biotinylated aptamer and antibodies against the first antibody. The second antibody is conjugated with horseradish peroxidase enzyme (HRP), which can changes TMB color from blue to be yellow. The yellow color intensity is direct indicator for the target protein concentration. Random selected aptamers in Table 5 and Table 6 were chosen for analysis using this method. Indirect ELISA Protocol Step 1: 0.8 μg of BSA or HSA or GHSA was added in 50 μl of 0.05 M carbonate buffer in 96 well plate (50 μL/well) and incubated at 4° C. for 1 night. In this process, all proteins will be coated on the 96 well plate.
Step 2: The reaction from step 1 was washed 5 times with Phosphate buffer (PBST) (0.05% Tween) using ELISA washing machine (Fluido 2) and tapped for 3-5 times.
Step 8: 50 μL of 0.6 M H_2SO_4 was added in the reaction and immediately measured the $OD_{450\ nm}$ using spectrophotometer.
For orientation: ELISA stands for enzyme-linked immunosorbent assay.

The target in series [3] is T1, Human serum albumin (HSA). In words: EMSA; 25 C 1 h; indirect ELISA also + at 0.2-200 nM (Table 9). The protocol: as §1
Series [4] addresses Glycated human serum albumin (GHSA) (Homo sapiens, UniProt P02768 P02768:25-609). In words: EMSA; unit as printed (umole); 25 C 1 h; also EMSA positive in Table 6 and direct ELISA positive. The protocol: Step 5: Aptamer analysis using Phototope®-Star Detection Kit (New England Biolabs) Nylon membrane was removed from the transferring set up and put in the clear plastic container containing solution A (5% Sodium Dodecyl Sulfate (SDS), 125 mM NaCl, 25 mM Sodium Phosphate, pH 7.5). The system was incubated at room temperature for 5 minutes with gentle shaking. The solution was discarded and 10 µL of streptavidin in 20 mL of solution A was added in the reaction container and incubated at room temperature for 5 minutes with gentle shaking. The solution was discarded. Then the membrane was washed 3 times by using solution B (1:10 of solution A in steriled water) with gentle shaking for 5 min. Then the washing buffer was discarded before the next round washing. […] in 20 mL of solution A was added in the container. Then the system was incubated at room temperature for 5 minutes with gentle shaking. Then the solution is discarded. The membrane was washed 3 times by solution C (10 mM Tris HCl, 10 mM NaCl, 1 mM […], pH 9.50) with gentle shaking and then solution is discarded. […]
The quantitative binding of G8 aptamer from this invention and clone 9 aptamer from the previous study were analyzed by electromobility shifted assay (EMSA) and results were compared. […]

T1 sequence (P02768 25-609, one chain of several): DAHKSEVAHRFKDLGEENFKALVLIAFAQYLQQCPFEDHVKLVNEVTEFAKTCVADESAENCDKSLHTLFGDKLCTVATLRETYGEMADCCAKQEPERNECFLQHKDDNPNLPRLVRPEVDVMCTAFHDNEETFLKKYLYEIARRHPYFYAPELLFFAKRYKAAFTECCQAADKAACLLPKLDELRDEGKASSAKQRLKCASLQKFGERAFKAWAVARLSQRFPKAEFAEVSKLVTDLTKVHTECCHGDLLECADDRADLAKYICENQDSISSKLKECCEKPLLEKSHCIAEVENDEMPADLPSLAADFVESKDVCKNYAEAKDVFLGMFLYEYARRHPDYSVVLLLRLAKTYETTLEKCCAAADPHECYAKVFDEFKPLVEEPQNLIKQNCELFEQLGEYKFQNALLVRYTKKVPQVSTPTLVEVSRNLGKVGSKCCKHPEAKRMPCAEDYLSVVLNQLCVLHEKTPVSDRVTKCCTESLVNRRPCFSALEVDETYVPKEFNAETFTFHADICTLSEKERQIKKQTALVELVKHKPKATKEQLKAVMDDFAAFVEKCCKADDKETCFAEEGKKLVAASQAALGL
Chain of Glycated human serum albumin (GHSA) (P02768 25-609, one chain of several): as above

B1: H8 (ssDNA)
DNA: ATACCAGCTTATTCAATTCCCCCGGCTTTGGTTTAGAGGTAGTTGCTCATTACTTGTACGCTCCGGATGAGATAGTAAGTGCAATCT
As for B1, in series [1], the binding result is reported as “binds”.

B2: clone 9 (ssDNA)
DNA: TAACTCACTCCATACTCACTTGCTGATTCGCCAACAACACACCCTTAAACAGTCCC
As for B2, in series [2], the binding result is on record as “binds”.

B3: H14 (ssDNA)
DNA: ATACCAGCTTATTCAATTCGCGCACATATACAGGGCTTTACCAGCGGGGAAGGTTAGCGACGCGAGGGGGAGATAGTAAGTGCAATCT
Regarding B3, in series [3], the binding result is given as “binds”.

B4: G8 (ssDNA)
DNA: GGTGCGGTTCGTGCGGTTGTAGTACTCGTGGCCGATAGAGGTAGTTTCG
Consider B4, for which the binding result in series [4] was “binds”.
